From patent US11584772B2, “N4-modified cytidine nucleotides and their use” (VILNIUS UNIVERSITY, priority 2017, dated 2023)

B1: YqfB: recombinant protein selected from metagenomic library, polyhystidine-tag at the N-terminus; amidase and esterase (protein, listed as Escherichia coli)
chain: MQPNDITFFQRFQDDILAGRKTITIRDESESHFKTGDVLRVGRFEDDGYFCTIEVTATSTVTLDTLTEKHAEQENMTLTELKKVIADIYPGQTQFYVIEFKCL
modifications: N-terminal His tag
notes: recombinant protein selected from metagenomic library, polyhystidine-tag at the N-terminus; amidase and esterase
B2: EST: recombinant protein selected from metagenomic library, polyhystidine-tag at the N-terminus; amidase and esterase (protein)
chain: MSSLFIGQVFAKTPEVQTSDLTGNTTCSNLVGMVIPADEIGLPTSGATITSATLKIVEDGAIKDAEYCEVLGAIHPVDPTAPDINFQVNLPTNWNKKFLQFGGGYFNGTVRTGLGNPPAGDRKLGKNTPLAQGYVTFGSDSGNSTAPLDASFGMNDEALKNFAGDQLKKTKDVALALANVRYNAVPDQVYFAGGSEGGREGLFIVQNFPDEYDGVISVYPVLNWIPKALKDNRDAQALYKNDGEGWISPEENDLINETVFKACDSLDGVKDGIISNTSECAEKEDKILDTLSESLSEKQIEVIKSFNGPMEFDIQLANDFTTMPGYSQLQGADIGRLFGTRPIPGVPPVVSESVGHVIDEQDALMGVYSDQVIRYKITRNPDFNTLTFDPNEYREEILKASNLLDVTDPNISEFRENGGKLILVHGTEDEMVAPQGTSDYYSKLVNEFGQESLDEFAQYYLVPGFSHGGGNFTMSANLLGALDAWVVNGDVPSNLVAEDQNSATFGRTRPLCEYPTYPQYNGSGDVNSAASFTCLKADKDKDISASDIQKLIEKFEVDGEFANHGTARSLQAHLDILIKLESQERETVDQIVKHTQKFIKLLDNHKKNGKITDHAYNTLKELAESYIKQIK
modifications: N-terminal His tag; Metagenomic origin
notes: as for B1
B3: D6: recombinant protein selected from metagenomic library, polyhystidine-tag at the N-terminus; amidase and esterase (protein)
chain: MEQLKFQKNWNNKCSCDFFTTIRLKGPKYTVGKELEMRIYKGGVFQNHGMIRVASLRPIQLHQINEWISRLDSGLSPEELRSELFYMYKDKVADVNKVDFYLILCERVKSKPIQNALFSTESTPAHD
modifications: N-terminal His tag; Metagenomic origin
notes: as for B1

Key:
[1] = mice; cited from earlier work
[2] = cited from earlier work
NLRC4 inflammasome = NLRC4 inflammasome (Homo sapiens, UniProt Q9NPP4); conditions: cited from earlier work
[3] = tested on: platelets and neutrophils; conditions: cited from earlier work
[4] = esterase activity of purified recombinant proteins; assay type: biochemical; conditions: purified His-tagged recombinant protein
Excerpt: (§1) Then recombinant proteins (EST, D6 and YqfB) having polyhystidine-tag at the N-terminus were purified by affinity chromatography, enzymatic activities of each protein were estimated.

[5] = hydrolysis of the amide bond of modified dCTP by purified recombinant proteins (amidase activity); assay type: biochemical; conditions: purified His-tagged recombinant protein, 37° C., various buffer solutions
Experimental: as §1
All three selected proteins are able to hydrolyse the amide bond of N^4-modified cytidine nucleotide. The hydrolysis reaction proceeds in various buffer solutions at 37° C. Depending on the concentration of purified protein enzymatic reaction lasts from several minutes to several hours. […] Moreover, these proteins are capable of hydrolysing not only the amide bond of modified dCTP but also the amide bond of modified cytidine.

NLRC4 inflammasome, sequence (Q9NPP4 whole entry): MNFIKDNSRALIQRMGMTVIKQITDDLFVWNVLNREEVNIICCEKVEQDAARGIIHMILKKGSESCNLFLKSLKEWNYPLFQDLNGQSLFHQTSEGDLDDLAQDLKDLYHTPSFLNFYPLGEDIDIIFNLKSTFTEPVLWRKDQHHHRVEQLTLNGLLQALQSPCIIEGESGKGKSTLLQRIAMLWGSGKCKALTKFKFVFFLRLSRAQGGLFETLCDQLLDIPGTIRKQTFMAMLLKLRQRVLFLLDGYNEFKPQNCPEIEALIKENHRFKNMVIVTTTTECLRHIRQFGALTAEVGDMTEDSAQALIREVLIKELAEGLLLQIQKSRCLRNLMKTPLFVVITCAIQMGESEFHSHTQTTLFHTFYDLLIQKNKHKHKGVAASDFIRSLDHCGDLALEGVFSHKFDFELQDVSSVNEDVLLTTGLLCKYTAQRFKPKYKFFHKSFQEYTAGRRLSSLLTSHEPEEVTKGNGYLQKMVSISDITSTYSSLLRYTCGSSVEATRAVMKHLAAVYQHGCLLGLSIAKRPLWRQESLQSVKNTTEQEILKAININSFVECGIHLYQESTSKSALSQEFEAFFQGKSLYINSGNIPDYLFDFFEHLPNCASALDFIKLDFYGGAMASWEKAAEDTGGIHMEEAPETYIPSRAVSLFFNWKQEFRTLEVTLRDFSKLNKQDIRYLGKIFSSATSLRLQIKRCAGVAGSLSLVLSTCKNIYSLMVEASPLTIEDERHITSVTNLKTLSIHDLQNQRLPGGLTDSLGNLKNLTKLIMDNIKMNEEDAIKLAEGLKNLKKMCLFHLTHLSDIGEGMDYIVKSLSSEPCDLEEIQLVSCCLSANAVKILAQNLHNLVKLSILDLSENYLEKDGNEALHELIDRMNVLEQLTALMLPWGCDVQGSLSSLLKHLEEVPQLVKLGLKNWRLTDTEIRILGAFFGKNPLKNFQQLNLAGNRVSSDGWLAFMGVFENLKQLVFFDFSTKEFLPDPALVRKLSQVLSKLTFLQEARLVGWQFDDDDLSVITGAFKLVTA

Molecule	blood pressure [1]	production of IL-1μ [2]	activation of the NLRC4 inflammasome (NLRC4 inflammasome)	activation of platelets and neutrophils [3]	esterase activity [4]	hydrolysis of the amide bond of modified dCTP (activity of amidase) [5]
CC(=O)Nc1ccn([C@@H]2O[C@H](CO)[C@@H](O)[C@H]2O)c(=O)n1 [N^4-acetyl-cytidine]	elevates blood pressure in mice	induces the production of IL-1μ	activates the NLRC4 inflammasome	activates platelets and neutrophils		
B1					behave as esterases	hydrolyse the amide bond of modified dCTP
B2					behave as esterases	hydrolyse the amide bond of modified dCTP
B3					behave as esterases	hydrolyse the amide bond of modified dCTP
